The values that follow come from US20210238260A1.

The term IC50 denotes the concentration needed to halve the response being measured.

This assay concerns the target antithrombin III (plasma purified human AT-III), used as the AT-III/unfractionated heparin complex (human), P01008. Put plainly: K0.5: AT-III/UFH titrated against FIXa, 10 s, residual cleavage of Mesyl-D-CHG-Gly-Arg-AMC. To be noted: remark: other sources report otherwise.

B1: FIXa-R318Y/R338E/R403E/E410N, P00740 47-191; P00740 227-461 (enzyme)
chain 1: YNSGKLEEFVQGNLERECMEEKCSFEEAREVFENTERTTEFWKQYVDGDQCESNPCLNGGSCKDDINSYECWCPFGFEGKNCELDVTCNIKNGRCEQFCKNSADNKVVCSCTEGYRLAENQKSCEPAVPFPCGRVSVSQTSKLTR
chain 2: VVGGEDAKPGQFPWQVVLNGKVDAFCGGSIVNEKWIVTAAHCVETGVKITVVAGEHNIEETEHTEQKRNVIRIIPHHNYNAAINKYNHDIALLELDEPLVLNSYVTPICIADKEYTNIFLKFGSGYVSGWGRVFHKGYSALVLQYLRVPLVDRATCLESTKFTIYNNMFCAGFHEGGRDSCQGDSGGPHVTEVEGTSFLTGIISWGEECAMKGKYGIYTKVSEYVNWIKNKTKLT
Regarding B1, the IC50 came out at 5.88 µM.
